Measured values as given in paper PMC9916714, “NMR Analysis Suggests Synergy between the RRM2 and the Carboxy-Terminal Segment of Human La Protein in the Recognition and Interaction with HCV IRES”.

Tests used:
Assay in all cases: ITC; 50 mM KPi pH 7, 25 C; 50 mM KPi pH 7; ITC at 25 C (50 uM protein in cell, 500 uM RNA in syringe); NMR at 298 K, 0.1 mM protein, 90% H2O/10% D2O
Settings in all cases: protein: recombinant; tags: IMAC tag (pET20b+; tag not specified)
La RRM2-Cter = biological target: T1, La RRM2-Cter (Homo sapiens, UniProt P05455 225-408)
T1 sequence: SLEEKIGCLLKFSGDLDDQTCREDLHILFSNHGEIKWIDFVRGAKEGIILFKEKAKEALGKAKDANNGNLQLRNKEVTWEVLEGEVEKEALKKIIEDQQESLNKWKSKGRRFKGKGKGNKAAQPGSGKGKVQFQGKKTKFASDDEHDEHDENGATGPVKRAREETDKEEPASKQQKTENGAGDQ

La RRM1-RRM2-SBM = biological target: T2, La RRM1-RRM2-SBM (Homo sapiens, UniProt P05455 105-359)
T2 sequence: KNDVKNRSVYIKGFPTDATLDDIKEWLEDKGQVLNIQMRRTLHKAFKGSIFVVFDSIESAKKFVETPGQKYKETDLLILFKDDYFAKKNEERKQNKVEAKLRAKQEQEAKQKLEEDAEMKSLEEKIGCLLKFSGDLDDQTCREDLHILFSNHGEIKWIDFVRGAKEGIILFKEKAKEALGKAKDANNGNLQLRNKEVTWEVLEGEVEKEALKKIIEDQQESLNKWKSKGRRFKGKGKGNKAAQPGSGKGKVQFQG

La RRM2-SBM = biological target: T3, La RRM2-SBM (Homo sapiens, UniProt P05455 225-359)
T3 sequence: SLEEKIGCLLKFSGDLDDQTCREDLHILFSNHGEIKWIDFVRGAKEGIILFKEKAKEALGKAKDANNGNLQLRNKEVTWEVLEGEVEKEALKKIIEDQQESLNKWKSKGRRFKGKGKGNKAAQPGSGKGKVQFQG

La RRM1-RRM2-Cter = biological target: T4, La RRM1-RRM2-Cter (Homo sapiens, UniProt P05455 105-408)
T4 sequence: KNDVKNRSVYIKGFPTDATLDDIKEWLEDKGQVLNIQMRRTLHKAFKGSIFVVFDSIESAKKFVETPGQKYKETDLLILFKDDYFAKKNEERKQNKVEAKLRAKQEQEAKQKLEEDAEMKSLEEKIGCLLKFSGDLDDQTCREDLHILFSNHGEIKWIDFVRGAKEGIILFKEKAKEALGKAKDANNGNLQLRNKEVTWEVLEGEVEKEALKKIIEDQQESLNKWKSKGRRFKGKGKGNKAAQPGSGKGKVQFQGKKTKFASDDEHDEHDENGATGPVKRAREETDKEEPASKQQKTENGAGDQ

B1: HCV-IRES domain IV (structured_RNA)
RNA: AGACCGUGCACCAUGAGCACGAAUCCA
Kd (La RRM2-Cter): 15.3 ± 1.49 µM | Kd (La RRM1-RRM2-SBM): 10.3 ± 2.04 µM | Kd (La RRM2-SBM): 28.2 ± 1.21 µM | Kd (La RRM1-RRM2-Cter): 9.76 ± 1.1 µM
